Results reported in a protein production outcome set (Wang et al. 2014).

Assay: label from the status in PepcDB records

MQVPKVTLNNGVEMPILGYGVFQIPPEKTEECVYEAIKVGYRLIDTAASYMNEEGVGRAIKRAIDEGIVRREELFVTTKLWVSDVGYESTKKAFEKSLKKLQLEYIDLYLIHQPFGDVHCAWKAMEEMYKDGLVRAIGVSNFYPDRLMDLMVHHEIVPAVNQIEIHPFYQRQEEIEFMRNYNIQPEAWGPFAEGRKNIFQNGVLRSIAEKYGKTVAQVILRWLTQKGIVAIPKTVRRERMKENISIFDFELTQEDMEKIATLDEGQSAFFSHRDPEVVKWICSLKR
protein production: not failed

MSLSLPLFYAPDIEQSDRLPDDEAGHILRVLRMQAGDRLRLTDGRGSFFDAVIETADRKSCYVSVCGQESWQKPWRDRITIAIAPTKQSERMEWMLEKLVEIGVDEVVFIESEHSERRRIKAERLERIAISAMKQSLKASFPVIRVNIPIQTVIADTPKAAVRLIAYVDEAVRAEITQGRGYPSDFYHVGQDVLILIGPEGDFSPSEVESALLAGFAPVSLGESRLRTETAGLVACQWIHTLQACCRIGEGHHHHHH
protein production: not failed

PVGWQCPGCTFINKPTRPGCEMCCRARPEAYQVPASYQP
protein production: not failed

MSRSSSPPLAPARRTRGGHACLALAMVLAGSTVPASKLIAAEVAPFTATAIRLGLALPVFLLLMRATGARWPRPGRRDACLLALQAAAGSVGYTALLIAGLRLTSAADAAVVIGTLPAVTALLAMAVLRERPPPRTLAAIALAAAGVLVLVGGRTDDAPGSLAGNLLVLGAVVCEGLFILLSKRLRAPIAPLPLSAALTAIGAVLAGAAALAEAPWHAAFGSPALAVLAYYAWLPTVAGFVLWYAGLARASASEAALFTALAPVAAVLLAALALGETVGPRQAAGIGCVLAAVLALRPGGDKQSQKENIK
protein production: failed

MSQEYTEDKDVTLTKLSSGRRLLEALLILIALFAVWLMAALLSFNPSDPSWSQTAWHEPIHNLGGAPGAWLADTLFFIFGVMAYTIPVIIVGGCWFAWRHQSTDDYIDYFAVSLRLIGVLALILTSCGLAAINADDIWYFASGGVIGSLLSTTLQPLLHSSGGTIMLLCIWAAGLTLFTGWSWVSIAEKLGGWLLNILTFASNRTRRDDTWVDDEEYDDEYDEETDGVQRESRRARILRGALARRKRLAEKFSNPRGRQTDAALFSGKRMDDDEDIQYSARGVAADPDDVLFSGNRATQPEYDEYDPLLNGHSVTEPVAAAAAATAVTQTWAASADPIMQTPPMPGAEPVVAQPTVEWQPVPGPQTGEPVIAPAPEGYQPHPQYAQPQEAQSAPWQQPVPVASAPQYAATPATAAEYDSLAPQETQPQWQAPDAEQHWQPEPTHQPEPIAAEPSHMPPPVIEQPVTTEPEPGIEETRPARPPLYYFEEVEEKRAREREQLAAWYQPIPEPVKENVPVKPTVSVAPSIPPVEAVAAAASLDAGIKSGALAAGAAAAAPAFSLATGGAPRPQVKEGIGPQLPRPNRVRVPTRRELASYGIKLPSQRIAEEKAREAERNQYETGVQLTDEEIDAMHQDELARQFAQSQQHRYGETYQHDTQQAEDDDTAAEAELARQFAASQQQRYSGEQPAGAQPFSLDDLDFSPMKVLVDEGPHEPLFTPGVMPESTPVQQPVAPQPQPQYQQSQQPVAPQSQYQQPQQPVAPQPQPQYQQSQQPVAPQSQYQQPQQPVAPQPQYQQPQQPVAPQPQYQQPQQPTAPQPQYQQPVAPQPQYQQPQQPVAPQPQYQQPQQPTAPQDSLIHPLLMRNGDSRPLQRPTTPLPSLDLLTPPPSEVEPVDTFALEQMARLVEARLADFRIKADVVNYSPGPVITRFELNLAPGVKAARISNLSRDLARSLSTVAVRVVEVIPGKPYVGLELPNKKRQTVYLREVLDNAKFRENPSPLTVVLGKDIAGDPVVADLAKMPHLLVAGTTGSGKSVGVNAMILSMLYKAQPEDVRFIMIDPKMLELSVYEGIPHLLTEVVTDMKDAANALRWSVNEMERRYKLMSALGVRNLAGYNEKIAEAARMGRPIPDPYWKPGDSMDVQHPVLEKLPYIVVLVDEFADLMMTVGKKVEELIARLAQKARAAGIHLVLATQRPSVDVITGLIKANIPTRIAFTVSSKIDSRTILDQGGAESLLGMGDMLYSGPNSTMPVRVHGAFVRDQEVHAVVQDWKARGRPQYVDGITSDSESEGGGGGFDGGEELDALFDQAVNFVTQKRKASISGVQRQFRIGYNRAARIIEQMEAQGIVSAQGHNGNREVLAPPPFE
protein production: failed
